The supplement of paper PMC10065799, “High-throughput profiling of sequence recognition by tyrosine kinases and SH2 domains using bacterial peptide display” (eLife, 2023)

Key:
[1] = target: FGFR3 (UniProt P22607); test: phosphorylation enrichment, bacterial display (enrichment ratio); higher = better substrate or ligand; peptides without Tyr show the background
[2] = test system: c-Abl (mouse); test: as above
[3] = target: Hck (UniProt P08631); test: as above
[4] = target: Fyn (UniProt P06241); test: as above
[5] = target: EPHB1 (UniProt P54762); test: as above
[6] = target: Jak2 (UniProt O60674); test: as above
[7] = test system: c-Src; test: as above
[8] = target: FGFR1 (UniProt P11362); test: as above
[9] = test system: Fer (mouse); test: as above
[10] = target: Fes (UniProt P07332); test: as above
[11] = test system: AncSZ; test: as above
[12] = target: MERTK (UniProt Q12866); test: as above
[13] = target: EPHB2 (UniProt P29323); test: as above
[14] = target: Grb2 SH2 (UniProt P62993); test: SH2 binding enrichment of the phosphorylated peptide, bacterial display (enrichment ratio); higher = better substrate or ligand; peptides without Tyr show the background
[15] = target: SHP2-C SH2; test: as above
[16] = target: c-Src SH2; test: as above
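For SH2 binding enrichment of the phosphorylated peptide, bacterial display in this document: peptide library displayed on the E. coli surface as eCPX fusions, selected cells deep-sequenced, score is each peptide's frequency after selection divided by its frequency in the input.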
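For phosphorylation enrichment, bacterial display in this document: 11-residue human phosphosite peptides and single-mutation variants displayed on the E. coli surface, counted by deep sequencing, each peptide's frequency after selection divided by its frequency in the unselected input library; frequency after pTyr selection over input frequency; kinase dosed for 20-30% of maximal phosphorylation in three min.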

Sequence of MERTK (Q12866 whole entry, looked up): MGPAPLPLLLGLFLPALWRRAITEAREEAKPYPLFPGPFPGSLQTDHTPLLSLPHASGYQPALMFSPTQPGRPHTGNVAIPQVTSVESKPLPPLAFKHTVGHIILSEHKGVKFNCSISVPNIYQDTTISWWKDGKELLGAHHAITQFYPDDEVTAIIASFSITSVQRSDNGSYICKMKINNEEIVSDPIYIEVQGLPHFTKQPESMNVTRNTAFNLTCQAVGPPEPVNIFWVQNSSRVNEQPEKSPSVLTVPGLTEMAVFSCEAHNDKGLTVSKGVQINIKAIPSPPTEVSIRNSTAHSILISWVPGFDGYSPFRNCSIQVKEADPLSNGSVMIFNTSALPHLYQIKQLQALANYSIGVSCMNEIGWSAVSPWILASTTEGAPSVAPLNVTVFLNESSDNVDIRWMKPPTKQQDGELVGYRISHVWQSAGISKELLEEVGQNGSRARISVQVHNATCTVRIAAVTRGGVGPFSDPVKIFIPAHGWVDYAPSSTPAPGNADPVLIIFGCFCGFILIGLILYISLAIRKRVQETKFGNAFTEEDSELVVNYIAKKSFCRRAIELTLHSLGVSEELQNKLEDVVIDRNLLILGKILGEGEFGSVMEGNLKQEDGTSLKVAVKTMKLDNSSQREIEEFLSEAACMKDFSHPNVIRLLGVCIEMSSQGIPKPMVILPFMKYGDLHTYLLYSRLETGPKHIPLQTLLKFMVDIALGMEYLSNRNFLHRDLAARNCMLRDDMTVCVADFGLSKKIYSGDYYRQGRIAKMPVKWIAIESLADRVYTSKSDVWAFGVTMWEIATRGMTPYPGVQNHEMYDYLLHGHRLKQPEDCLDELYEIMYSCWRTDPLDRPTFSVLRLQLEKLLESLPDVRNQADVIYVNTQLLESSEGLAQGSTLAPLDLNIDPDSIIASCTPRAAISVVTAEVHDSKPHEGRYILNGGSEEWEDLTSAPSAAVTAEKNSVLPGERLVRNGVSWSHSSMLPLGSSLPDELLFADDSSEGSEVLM
Sequence of Jak2 (O60674 whole entry, looked up): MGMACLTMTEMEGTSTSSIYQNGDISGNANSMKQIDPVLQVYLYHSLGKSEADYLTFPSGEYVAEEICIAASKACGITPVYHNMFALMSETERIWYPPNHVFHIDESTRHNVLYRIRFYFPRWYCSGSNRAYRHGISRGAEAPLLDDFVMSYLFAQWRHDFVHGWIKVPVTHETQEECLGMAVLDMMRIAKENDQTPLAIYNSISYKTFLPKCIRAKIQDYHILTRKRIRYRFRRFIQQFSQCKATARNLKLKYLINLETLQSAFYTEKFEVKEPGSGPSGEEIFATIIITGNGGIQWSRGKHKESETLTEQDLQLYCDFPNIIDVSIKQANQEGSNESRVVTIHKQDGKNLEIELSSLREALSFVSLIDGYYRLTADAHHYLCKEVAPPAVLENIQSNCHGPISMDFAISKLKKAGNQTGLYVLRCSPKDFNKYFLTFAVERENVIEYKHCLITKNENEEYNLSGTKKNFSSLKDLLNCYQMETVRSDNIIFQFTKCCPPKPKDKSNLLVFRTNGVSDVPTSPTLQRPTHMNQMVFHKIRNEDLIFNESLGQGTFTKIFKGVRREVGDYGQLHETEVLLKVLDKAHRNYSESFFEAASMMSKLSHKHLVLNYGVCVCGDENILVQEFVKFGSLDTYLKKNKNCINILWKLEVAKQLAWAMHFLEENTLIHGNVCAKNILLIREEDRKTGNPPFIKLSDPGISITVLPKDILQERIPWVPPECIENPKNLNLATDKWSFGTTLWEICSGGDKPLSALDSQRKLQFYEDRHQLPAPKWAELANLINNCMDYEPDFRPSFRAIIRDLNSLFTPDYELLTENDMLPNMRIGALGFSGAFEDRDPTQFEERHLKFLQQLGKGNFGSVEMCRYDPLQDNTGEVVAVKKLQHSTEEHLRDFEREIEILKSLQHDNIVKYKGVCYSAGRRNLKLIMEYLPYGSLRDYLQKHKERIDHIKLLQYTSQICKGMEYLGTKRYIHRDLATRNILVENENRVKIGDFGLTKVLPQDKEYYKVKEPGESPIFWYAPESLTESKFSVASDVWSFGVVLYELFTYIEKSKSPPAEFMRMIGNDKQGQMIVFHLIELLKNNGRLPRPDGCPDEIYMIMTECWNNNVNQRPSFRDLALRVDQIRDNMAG
Sequence of Hck (P08631 whole entry, looked up): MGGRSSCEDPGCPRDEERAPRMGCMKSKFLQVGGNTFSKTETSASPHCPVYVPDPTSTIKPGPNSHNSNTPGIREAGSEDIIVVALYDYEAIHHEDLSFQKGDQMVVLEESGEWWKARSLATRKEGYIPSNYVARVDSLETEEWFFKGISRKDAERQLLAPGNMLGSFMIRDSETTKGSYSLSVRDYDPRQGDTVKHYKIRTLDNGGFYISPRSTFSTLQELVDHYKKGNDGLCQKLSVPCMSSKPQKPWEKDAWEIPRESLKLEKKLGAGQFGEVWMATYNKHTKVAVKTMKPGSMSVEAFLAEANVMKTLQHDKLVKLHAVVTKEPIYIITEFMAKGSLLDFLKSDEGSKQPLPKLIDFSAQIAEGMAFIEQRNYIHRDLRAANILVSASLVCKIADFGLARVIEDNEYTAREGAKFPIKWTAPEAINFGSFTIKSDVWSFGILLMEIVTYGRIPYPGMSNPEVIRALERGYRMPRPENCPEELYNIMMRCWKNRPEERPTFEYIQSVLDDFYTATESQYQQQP
Sequence of EPHB2 (P29323 whole entry, looked up): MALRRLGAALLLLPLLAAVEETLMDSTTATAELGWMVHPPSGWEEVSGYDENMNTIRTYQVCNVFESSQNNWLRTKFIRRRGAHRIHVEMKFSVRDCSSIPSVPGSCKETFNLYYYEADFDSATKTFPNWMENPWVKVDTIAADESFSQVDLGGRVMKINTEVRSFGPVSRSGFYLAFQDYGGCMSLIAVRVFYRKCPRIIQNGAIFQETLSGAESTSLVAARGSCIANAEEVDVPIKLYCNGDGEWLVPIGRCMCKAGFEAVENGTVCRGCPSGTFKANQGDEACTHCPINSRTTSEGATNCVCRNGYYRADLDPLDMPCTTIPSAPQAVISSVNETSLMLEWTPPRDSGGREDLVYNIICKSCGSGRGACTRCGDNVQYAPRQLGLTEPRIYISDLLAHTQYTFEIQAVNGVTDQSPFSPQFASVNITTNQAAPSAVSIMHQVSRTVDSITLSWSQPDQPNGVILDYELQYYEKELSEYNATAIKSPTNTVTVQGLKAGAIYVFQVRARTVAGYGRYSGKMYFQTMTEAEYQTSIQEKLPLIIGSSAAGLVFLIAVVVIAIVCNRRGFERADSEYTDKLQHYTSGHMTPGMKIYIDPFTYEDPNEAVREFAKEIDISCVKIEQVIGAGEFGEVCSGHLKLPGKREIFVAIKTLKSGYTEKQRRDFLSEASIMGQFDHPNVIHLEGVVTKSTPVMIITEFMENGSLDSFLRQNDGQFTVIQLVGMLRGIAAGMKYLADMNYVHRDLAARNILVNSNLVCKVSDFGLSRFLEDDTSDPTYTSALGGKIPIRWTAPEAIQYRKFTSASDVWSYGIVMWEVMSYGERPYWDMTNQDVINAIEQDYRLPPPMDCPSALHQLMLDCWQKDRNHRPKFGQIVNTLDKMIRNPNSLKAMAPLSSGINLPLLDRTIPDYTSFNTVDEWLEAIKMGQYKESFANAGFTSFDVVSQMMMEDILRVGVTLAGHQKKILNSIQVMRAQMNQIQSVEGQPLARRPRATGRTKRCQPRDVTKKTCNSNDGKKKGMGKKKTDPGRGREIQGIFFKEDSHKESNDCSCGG
Sequence of FGFR1 (P11362 whole entry, looked up): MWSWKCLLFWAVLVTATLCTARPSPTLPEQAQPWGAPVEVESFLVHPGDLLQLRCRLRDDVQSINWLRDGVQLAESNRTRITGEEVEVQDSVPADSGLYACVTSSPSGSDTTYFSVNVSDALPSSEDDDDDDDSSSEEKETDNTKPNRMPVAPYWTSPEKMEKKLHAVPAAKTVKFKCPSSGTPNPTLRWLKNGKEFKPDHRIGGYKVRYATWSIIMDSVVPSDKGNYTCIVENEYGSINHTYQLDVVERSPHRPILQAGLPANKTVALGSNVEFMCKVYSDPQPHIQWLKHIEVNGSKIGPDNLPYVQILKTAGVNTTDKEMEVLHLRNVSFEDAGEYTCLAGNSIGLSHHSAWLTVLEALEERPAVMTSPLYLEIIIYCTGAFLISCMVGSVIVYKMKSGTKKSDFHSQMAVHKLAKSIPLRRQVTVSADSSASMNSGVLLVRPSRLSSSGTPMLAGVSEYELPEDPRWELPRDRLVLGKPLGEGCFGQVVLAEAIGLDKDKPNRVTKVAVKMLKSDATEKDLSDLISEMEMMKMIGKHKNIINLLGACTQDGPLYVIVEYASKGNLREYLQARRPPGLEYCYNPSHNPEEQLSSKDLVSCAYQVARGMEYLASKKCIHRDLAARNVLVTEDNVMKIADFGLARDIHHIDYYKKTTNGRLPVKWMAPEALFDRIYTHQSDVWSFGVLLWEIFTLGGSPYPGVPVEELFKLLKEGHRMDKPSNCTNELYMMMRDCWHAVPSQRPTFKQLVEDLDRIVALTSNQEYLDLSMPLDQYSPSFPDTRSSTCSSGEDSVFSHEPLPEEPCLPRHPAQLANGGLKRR
Sequence of Fyn (P06241 whole entry, looked up): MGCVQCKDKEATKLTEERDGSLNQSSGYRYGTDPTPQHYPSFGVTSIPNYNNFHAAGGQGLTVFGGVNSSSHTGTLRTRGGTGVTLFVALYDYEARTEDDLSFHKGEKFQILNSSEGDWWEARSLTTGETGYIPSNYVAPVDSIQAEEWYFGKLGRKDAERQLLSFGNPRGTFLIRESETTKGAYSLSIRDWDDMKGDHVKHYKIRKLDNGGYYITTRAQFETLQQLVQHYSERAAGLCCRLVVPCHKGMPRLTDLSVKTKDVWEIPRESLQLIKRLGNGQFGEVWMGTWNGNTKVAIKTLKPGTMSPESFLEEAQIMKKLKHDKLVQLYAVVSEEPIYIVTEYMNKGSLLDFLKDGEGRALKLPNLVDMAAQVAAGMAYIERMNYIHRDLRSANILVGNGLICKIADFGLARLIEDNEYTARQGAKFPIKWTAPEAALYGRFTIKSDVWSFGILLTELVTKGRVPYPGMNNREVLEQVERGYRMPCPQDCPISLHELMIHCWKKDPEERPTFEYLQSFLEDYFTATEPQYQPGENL

Sequence	SH2 binding enrichment [14]	SH2 binding enrichment [15]	SH2 binding enrichment [16]	phosphorylation enrichment [1]	phosphorylation enrichment [2]	phosphorylation enrichment [3]	phosphorylation enrichment [4]	phosphorylation enrichment [5]	phosphorylation enrichment [6]	phosphorylation enrichment [7]	phosphorylation enrichment [8]	phosphorylation enrichment [9]	phosphorylation enrichment [10]	phosphorylation enrichment [11]	phosphorylation enrichment [12]	phosphorylation enrichment [13]
IIWDSYTTNKV [GNB1_Y85]	0.76	0.77	0.543	0.729	0.687	0.482	0.46	0.498	0.863	0.395	0.489	0.665	1.21	1.2	0.356	0.598
RLSELYLRRNR [CFAP410_Y68]	0.736	0.585	0.344	0.875	1.1	0.827	0.878	0.94	0.934	0.931	0.703	0.57	1.14	1.3	1.04	0.807
RLQEGYDHSYY [ESD_Y258]	0.939	1.05	1.4	0.928	1.11	0.611	0.645	0.717	1.05	1.06	0.715	0.573	1.01	1.21	0.597	0.53

The next lines start with results.

SH2 binding enrichment [14]	SH2 binding enrichment [15]	SH2 binding enrichment [16]	Sequence	phosphorylation enrichment [1]	phosphorylation enrichment [2]	phosphorylation enrichment [3]	phosphorylation enrichment [4]	phosphorylation enrichment [5]	phosphorylation enrichment [6]	phosphorylation enrichment [7]	phosphorylation enrichment [8]	phosphorylation enrichment [9]	phosphorylation enrichment [10]	phosphorylation enrichment [11]	phosphorylation enrichment [12]	phosphorylation enrichment [13]
0.668	0.705	0.356	VGNAAYQAGSL [STK36_Y1181_P1185S]	0.446	0.448	0.37	0.401	0.437	0.466	0.361	0.552	0.436	0.598	0.565	0.312	0.37
0.734	0.886	0.803	KNKNRYKNVLP [PTPN11_Y279_I282V]	0.716	0.881	0.412	0.372	0.426	0.767	0.449	0.419	0.414	0.593	0.551	0.473	0.398
